Data as given in patent US20210246204A1 (Alector, published 2021).

How the values were obtained:
[1] = biological target: T1, histidine-tagged human Siglec-7 (NovoProtein) (human, UniProt Q9Y286 19-353); experiment: BLI, antibody captured
T1 construct: Bought protein; also called recombinant human Siglec-7; recombinant Siglec-7; not shown: histidine tag
Protocol: In this assay, the humanized antibodies were compared directly to S7AB. Briefly, the antibodies were captured on anti-human or anti-mouse IgG Fc Biosensors (Pall ForteBio). Varying concentrations (0-100 nM) of histidine-tagged human Siglec-7 (NovoProtein) were then bound to the captured anti-Siglec-7 surface (200 s association time, 900 s dissociation time). Multi-concentration kinetic analysis was performed using a 1:1 interaction model to extract association and dissociation rate constants (kₐ and kd, respectively) for each antibody. Apparent affinity constants (KD) were calculated from the ratio kd/kₐ.
The affinities of S7AB-H8 and variants S7AB-H8.1 through S7AB-H8.45 for human Siglec-7 were measured by BioLayer Interferometry according to the method described in Example 1 above.

[2] = biological target: human Siglec-7 on primary human monocyte-derived dendritic cells (human, UniProt Q9Y286 19-467); experiment: cell-based or functional assay
Sequence of human Siglec-7 on primary human monocyte-derived dendritic cells (Q9Y286 19-467): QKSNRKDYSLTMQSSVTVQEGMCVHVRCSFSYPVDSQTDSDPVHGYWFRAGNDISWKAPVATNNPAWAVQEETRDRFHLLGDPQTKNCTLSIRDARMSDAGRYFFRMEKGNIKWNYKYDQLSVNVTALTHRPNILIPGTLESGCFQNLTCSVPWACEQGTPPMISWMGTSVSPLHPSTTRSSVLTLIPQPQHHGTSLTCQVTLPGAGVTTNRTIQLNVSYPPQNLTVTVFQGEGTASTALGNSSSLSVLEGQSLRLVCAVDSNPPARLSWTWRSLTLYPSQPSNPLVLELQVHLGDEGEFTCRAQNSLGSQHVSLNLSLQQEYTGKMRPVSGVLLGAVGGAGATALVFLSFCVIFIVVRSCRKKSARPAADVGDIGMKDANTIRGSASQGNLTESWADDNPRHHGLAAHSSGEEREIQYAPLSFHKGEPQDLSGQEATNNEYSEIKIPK

T1 sequence (Q9Y286 19-353 limits assumed): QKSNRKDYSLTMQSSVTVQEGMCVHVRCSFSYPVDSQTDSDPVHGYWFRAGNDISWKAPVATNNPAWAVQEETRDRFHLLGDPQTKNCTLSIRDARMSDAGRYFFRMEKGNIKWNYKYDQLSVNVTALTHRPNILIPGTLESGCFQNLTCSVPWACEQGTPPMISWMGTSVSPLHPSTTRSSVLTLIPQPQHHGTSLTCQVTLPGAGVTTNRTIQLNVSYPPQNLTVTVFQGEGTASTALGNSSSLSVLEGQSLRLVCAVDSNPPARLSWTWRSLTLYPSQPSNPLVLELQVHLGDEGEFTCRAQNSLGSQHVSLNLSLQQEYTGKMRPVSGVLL

B1: S7AB-H8.26 (antibody, V domains shown)
VH: QVQLVQSGAEVKKPGASVKVSCKASGYAFTETWMNWVRQAPGQGLEWIGRIFPGLGHTNYAQKFQGRATLTEDTSTSTAYMELSSLRSEDTAVYYCARDYSDYYFDYWGQGTLVTVSS
VL: DIQMTQSPSSLSASVGDRVTITCRASQDANTYLNWYQQKPGKAPKLLIYYTSRLHSGVPSRFSGSGSGTDYTLTISSLQPEDFATYYCQQGNLLPWTFGQGTKLEIK
Q: With B1 as the binder, how does the Kd [1] read?
A: 0.397 nM

Q: And the “fold improvement over S7AB-H8” value [1]?
A: 2.6 fold

Q: And the koff [1]?
A: 5.9e-05 s⁻¹

Q: And the kon [1]?
A: 149000 M⁻¹ s⁻¹

Q: What about the “Fold increase in potency compared to AB-H8” value (from here on “Fold increase … to AB-H8”) [2] of the same binder?
A: 1.9 fold

Q: What about the “Fold increase in potency compared to Chimeric Ab” value (“Fold increase … to Chimeric Ab” for short) [2] of the same binder?
A: 5.7 fold

Q: And the “Maximal downregulation (% Siglec-7 remaining)” value [2]?
A: 9.8%

Q: And the “Receptor downregulation, (EC50) (pM)” value [2]?
A: 180 pM

B2: S7AB-H8.35 (antibody, V domains shown)
VH: QVQLVQSGAEVKKPGASVKVSCKASGYAFTEAWMNWVRQAPGQGLEWIGRIFPGYGHTNYAQKFQGRATLTEDTSTSTAYMELSSLRSEDTAVYYCARDYSDYYFDYWGQGTLVTVSS
VL: DIQMTQSPSSLSASVGDRVTITCRGSQDINTYLNWYQQKPGKAPKLLIYYTSRLHSGVPSRFSGSGSGTDYTLTISSLQPEDFATYYCQQGGTLPWTFGQGTKLEIK
Q: B2 was tested. Which Kd [1] did it give?
A: 0.607 nM

Q: And the “fold improvement over S7AB-H8” value [1]?
A: 1.7 fold

Q: What about the koff [1] of the same binder?
A: 6.57e-05 s⁻¹

Q: And the kon [1]?
A: 108000 M⁻¹ s⁻¹

Q: And the “Fold increase … to AB-H8” value [2]?
A: 1.6 fold

Q: And the “Fold increase … to Chimeric Ab” value [2]?
A: 5 fold

Q: What about the “Maximal downregulation (% Siglec-7 remaining)” value [2] of the same binder?
A: 9.3%

Q: And the “Receptor downregulation, (EC50) (pM)” value [2]?
A: 206 pM

B3: S7AB-H8.33 (antibody, V domains shown)
VH: QVQLVQSGAEVKKPGASVKVSCKASGYAFTGYWMNWVRQAPGQGLEWIGRIFPGLGHTNYAQKFQGRATLTEDTSTSTAYMELSSLRSEDTAVYYCARDYSDYYFDYWGQGTLVTVSS
VL: DIQMTQSPSSLSASVGDRVTITCRGSQDINTYLNWYQQKPGKAPKLLIYYTSRLHSGVPSRFSGSGSGTDYTLTISSLQPEDFATYYCQQGGTLPWTFGQGTKLEIK
Q: With B3 as the binder, how does the Kd [1] read?
A: 0.326 nM

Q: And the “fold improvement over S7AB-H8” value [1]?
A: 3.2 fold

Q: And the koff [1]?
A: 7.64e-05 s⁻¹

Q: And the kon [1]?
A: 235000 M⁻¹ s⁻¹

Q: And the “Fold increase … to AB-H8” value [2]?
A: 5.2 fold

Q: And the “Fold increase … to Chimeric Ab” value [2]?
A: 15.7 fold

Q: And the “Maximal downregulation (% Siglec-7 remaining)” value [2]?
A: 17.2%

Q: What about the “Receptor downregulation, (EC50) (pM)” value [2] of the same binder?
A: 65.3 pM

B4: S7AB-H8.29 (antibody, V domains shown)
VH: QVQLVQSGAEVKKPGASVKVSCKASGYAFTAAWMNWVRQAPGQGLEWIGRIFPGLGHTNYAQKFQGRATLTEDTSTSTAYMELSSLRSEDTAVYYCARDYSDYYFDYWGQGTLVTVSS
VL: DIQMTQSPSSLSASVGDRVTITCRASQDANTYLNWYQQKPGKAPKLLIYYTSRLHSGVPSRFSGSGSGTDYTLTISSLQPEDFATYYCQQGNLLPWTFGQGTKLEIK
Q: Which Kd [1] does the source give for B4 here?
A: 0.263 nM

Q: And the “fold improvement over S7AB-H8” value [1]?
A: 4 fold

Q: What about the koff [1] of the same binder?
A: 4e-05 s⁻¹

Q: What about the kon [1] of the same binder?
A: 152000 M⁻¹ s⁻¹

Q: And the “Fold increase … to AB-H8” value [2]?
A: 6.7 fold

Q: What about the “Fold increase … to Chimeric Ab” value [2] of the same binder?
A: 20 fold

Q: And the “Maximal downregulation (% Siglec-7 remaining)” value [2]?
A: 3.7%

Q: And the “Receptor downregulation, (EC50) (pM)” value [2]?
A: 51.1 pM

B5: S7AB-H8.28 (antibody, V domains shown)
VH: QVQLVQSGAEVKKPGASVKVSCKASGYAFTGYWMNWVRQAPGQGLEWIGRIFPGLGHTNYAQKFQGRATLTEDTSTSTAYMELSSLRSEDTAVYYCARDYSDYYFDYWGQGTLVTVSS
VL: DIQMTQSPSSLSASVGDRVTITCRASQDANTYLNWYQQKPGKAPKLLIYYTSRLHSGVPSRFSGSGSGTDYTLTISSLQPEDFATYYCQQGNLLPWTFGQGTKLEIK
Q: Which results are given for B5?
A: Kd [1]: 0.159 nM; fold improvement over S7AB-H8 [1]: 6.6 fold; koff [1]: 3.51e-05 s⁻¹; kon [1]: 221000 M⁻¹ s⁻¹; Fold increase in potency compared to AB-H8 [2]: 4.6 fold; Fold increase in potency compared to Chimeric Ab [2]: 13.7 fold; Maximal downregulation (% Siglec-7 remaining) [2]: 17%; Receptor downregulation, (EC50) (pM) [2]: 74.6 pM

B6: S7AB-H8.34 (antibody, V domains shown)
VH: QVQLVQSGAEVKKPGASVKVSCKASGYAFTAAWMNWVRQAPGQGLEWIGRIFPGLGHTNYAQKFQGRATLTEDTSTSTAYMELSSLRSEDTAVYYCARDYSDYYFDYWGQGTLVTVSS
VL: DIQMTQSPSSLSASVGDRVTITCRGSQDINTYLNWYQQKPGKAPKLLIYYTSRLHSGVPSRFSGSGSGTDYTLTISSLQPEDFATYYCQQGGTLPWTFGQGTKLEIK
Q: For B6, which Kd [1] is on record?
A: 0.237 nM

Q: What about the “fold improvement over S7AB-H8” value [1] of the same binder?
A: 4.4 fold

Q: What about the koff [1] of the same binder?
A: 2.81e-05 s⁻¹

Q: What about the kon [1] of the same binder?
A: 119000 M⁻¹ s⁻¹

Q: And the “Fold increase … to AB-H8” value [2]?
A: 2.9 fold

Q: What about the “Fold increase … to Chimeric Ab” value [2] of the same binder?
A: 8.7 fold

Q: What about the “Maximal downregulation (% Siglec-7 remaining)” value [2] of the same binder?
A: 3.6%

Q: What about the “Receptor downregulation, (EC50) (pM)” value [2] of the same binder?
A: 118 pM

B7: S7AB-H8.31 (antibody, V domains shown)
VH: QVQLVQSGAEVKKPGASVKVSCKASGYAFTETWMNWVRQAPGQGLEWIGRIFPGLGHTNYAQKFQGRATLTEDTSTSTAYMELSSLRSEDTAVYYCARDYSDYYFDYWGQGTLVTVSS
VL: DIQMTQSPSSLSASVGDRVTITCRGSQDINTYLNWYQQKPGKAPKLLIYYTSRLHSGVPSRFSGSGSGTDYTLTISSLQPEDFATYYCQQGGTLPWTFGQGTKLEIK
Q: Which results are given for B7?
A: Kd [1]: 0.742 nM; fold improvement over S7AB-H8 [1]: 1.4 fold; koff [1]: 0.000107 s⁻¹; kon [1]: 145000 M⁻¹ s⁻¹; Fold increase in potency compared to AB-H8 [2]: 2.4 fold; Fold increase in potency compared to Chimeric Ab [2]: 7.2 fold; Maximal downregulation (% Siglec-7 remaining) [2]: 10.5%; Receptor downregulation, (EC50) (pM) [2]: 143 pM

B8: S7AB-H8.27 (antibody, V domains shown)
VH: QVQLVQSGAEVKKPGASVKVSCKASGYAFTMAWMNWVRQAPGQGLEWIGRIFPGYGHTNYAQKFQGRATLTEDTSTSTAYMELSSLRSEDTAVYYCARDYSDYYFDYWGQGTLVTVSS
VL: DIQMTQSPSSLSASVGDRVTITCRASQDANTYLNWYQQKPGKAPKLLIYYTSRLHSGVPSRFSGSGSGTDYTLTISSLQPEDFATYYCQQGNLLPWTFGQGTKLEIK
Q: Which results are given for B8?
A: Kd [1]: 0.1 nM; fold improvement over S7AB-H8 [1]: 10.5 fold; koff [1]: 1.56e-05 s⁻¹; kon [1]: 156000 M⁻¹ s⁻¹; Fold increase in potency compared to AB-H8 [2]: 3.6 fold; Fold increase in potency compared to Chimeric Ab [2]: 10.9 fold; Maximal downregulation (% Siglec-7 remaining) [2]: 2.9%; Receptor downregulation, (EC50) (pM) [2]: 93.7 pM

B9: S7AB-H8.36 (antibody, V domains shown)
VH: QVQLVQSGAEVKKPGASVKVSCKASGYAFTETWMNWVRQAPGQGLEWIGRIFPGLGHTNYAQKFQGRATLTEDTSTSTAYMELSSLRSEDTAVYYCARDYSDYYFDYWGQGTLVTVSS
VL: DIQMTQSPSSLSASVGDRVTITCRGSQDINTYLNWYQQKPGKAPKLLIYYTSRLHSGVPSRFSGSGSGTDYTLTISSLQPEDFATYYCQQGNVLPWTFGQGTKLEIK
Q: B9 was tested. Which Kd [1] did it give?
A: 0.605 nM

Q: And the “fold improvement over S7AB-H8” value [1]?
A: 1.7 fold

Q: What about the koff [1] of the same binder?
A: 9.81e-05 s⁻¹

Q: What about the kon [1] of the same binder?
A: 162000 M⁻¹ s⁻¹

Q: What about the “Fold increase … to AB-H8” value [2] of the same binder?
A: 2.7 fold

Q: And the “Fold increase … to Chimeric Ab” value [2]?
A: 8.2 fold

Q: And the “Maximal downregulation (% Siglec-7 remaining)” value [2]?
A: 11.4%

Q: And the “Receptor downregulation, (EC50) (pM)” value [2]?
A: 125 pM

B10: S7AB-H8.32 (antibody, V domains shown)
VH: QVQLVQSGAEVKKPGASVKVSCKASGYAFTMAWMNWVRQAPGQGLEWIGRIFPGYGHTNYAQKFQGRATLTEDTSTSTAYMELSSLRSEDTAVYYCARDYSDYYFDYWGQGTLVTVSS
VL: DIQMTQSPSSLSASVGDRVTITCRGSQDINTYLNWYQQKPGKAPKLLIYYTSRLHSGVPSRFSGSGSGTDYTLTISSLQPEDFATYYCQQGGTLPWTFGQGTKLEIK
Q: For B10, which Kd [1] is on record?
A: 0.356 nM

Q: What about the “fold improvement over S7AB-H8” value [1] of the same binder?
A: 2.9 fold

Q: And the koff [1]?
A: 3.93e-05 s⁻¹

Q: What about the kon [1] of the same binder?
A: 111000 M⁻¹ s⁻¹

Q: What about the “Fold increase … to AB-H8” value [2] of the same binder?
A: 3.7 fold

Q: And the “Fold increase … to Chimeric Ab” value [2]?
A: 11.2 fold

Q: And the “Maximal downregulation (% Siglec-7 remaining)” value [2]?
A: 3.4%

Q: What about the “Receptor downregulation, (EC50) (pM)” value [2] of the same binder?
A: 91.3 pM

B11: S7AB-H8.30 (antibody, V domains shown)
VH: QVQLVQSGAEVKKPGASVKVSCKASGYAFTEAWMNWVRQAPGQGLEWIGRIFPGYGHTNYAQKFQGRATLTEDTSTSTAYMELSSLRSEDTAVYYCARDYSDYYFDYWGQGTLVTVSS
VL: DIQMTQSPSSLSASVGDRVTITCRASQDANTYLNWYQQKPGKAPKLLIYYTSRLHSGVPSRFSGSGSGTDYTLTISSLQPEDFATYYCQQGNLLPWTFGQGTKLEIK
Q: What does the source list for B11?
A: Kd [1]: 0.395 nM; fold improvement over S7AB-H8 [1]: 2.7 fold; koff [1]: 4.13e-05 s⁻¹; kon [1]: 105000 M⁻¹ s⁻¹; Fold increase in potency compared to AB-H8 [2]: 2.7 fold; Fold increase in potency compared to Chimeric Ab [2]: 8.2 fold; Maximal downregulation (% Siglec-7 remaining) [2]: 8.2%; Receptor downregulation, (EC50) (pM) [2]: 126 pM
